Source: the supplement of paper PMC9112550, “Optimization of the antimicrobial peptide Bac7 by deep mutational scanning” (BMC Biology, 2022)

test system: Escherichia coli TOP10; experiment: shrunken log2 fold change of peptide-encoding DNA abundance (4.5 h post-induction vs induction); higher = less antimicrobial activity (less host growth inhibition); details: time post-induction: 4.5 h; library: site-saturation at positions 5, 18, 19, 20
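Note: peptides expressed intracellularly from a pBAD plasmid library in pooled LB shake-flask culture, induced with 0.3% L-arabinose, DNA abundance read by NGS, three biological replicates, DESeq2 with apeglm shrinkage.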

Sequence | shrunken log2 fold change
RRIRMRPPRLPRPRPRPQVSPRP | 0.399
RRIRMRPPRLPRPRPRPQWHPRP | 0.265
RRIRMRPPRLPRPRPRPQYAPRP | 0.0122
RRIRMRPPRLPRPRPRPQYYPRP | -0.805
RRIRMRPPRLPRPRPRPRARPRP | 1.67
RRIRMRPPRLPRPRPRPRCLPRP | -0.0778
RRIRMRPPRLPRPRPRPRECPRP | 0.0611
RRIRMRPPRLPRPRPRPRGPPRP | 0.684
RRIRMRPPRLPRPRPRPRGRPRP | 1.2
RRIRMRPPRLPRPRPRPRHLPRP | -0.0764
RRIRMRPPRLPRPRPRPRHPPRP | 0.617
RRIRMRPPRLPRPRPRPRHQPRP | 0.155
RRIRMRPPRLPRPRPRPRKMPRP | 0.356
RRIRMRPPRLPRPRPRPRMTPRP | 1.84
RRIRMRPPRLPRPRPRPRNEPRP | 0.471
RRIRMRPPRLPRPRPRPRPGPRP | 1.38
RRIRMRPPRLPRPRPRPRPHPRP | 1.05
RRIRMRPPRLPRPRPRPRPLPRP | 1.17
RRIRMRPPRLPRPRPRPRPTPRP | 1.27
RRIRMRPPRLPRPRPRPRRTPRP | 1.76

Sequence | shrunken log2 fold change
RRIRMRPPRLPRPRPRPRSKPRP | 0.907
RRIRMRPPRLPRPRPRPRTFPRP | 0.541
RRIRMRPPRLPRPRPRPRTLPRP | 0.28
RRIRMRPPRLPRPRPRPRTSPRP | 0.623
RRIRMRPPRLPRPRPRPRTVPRP | 0.472
RRIRMRPPRLPRPRPRPRVKPRP | 0.494
RRIRMRPPRLPRPRPRPRVPPRP | 0.83
RRIRMRPPRLPRPRPRPRVYPRP | 0.0557
RRIRMRPPRLPRPRPRPRWVPRP | 0.4
RRIRMRPPRLPRPRPRPRWWPRP | 1.11
RRIRMRPPRLPRPRPRPRYYPRP | -0.261
RRIRMRPPRLPRPRPRPSANPRP | 2.44
RRIRMRPPRLPRPRPRPSCTPRP | -0.0592
RRIRMRPPRLPRPRPRPSDIPRP | -0.192
RRIRMRPPRLPRPRPRPSDYPRP | 0.0806
RRIRMRPPRLPRPRPRPSFTPRP | -0.0116
RRIRMRPPRLPRPRPRPSHAPRP | 0.282
RRIRMRPPRLPRPRPRPSHLPRP | -0.123
RRIRMRPPRLPRPRPRPSIWPRP | -0.255
RRIRMRPPRLPRPRPRPSKGPRP | -0.071

Sequence | shrunken log2 fold change
RRIRMRPPRLPRPRPRPSMYPRP | 0.081
RRIRMRPPRLPRPRPRPSPLPRP | 0.302
RRIRMRPPRLPRPRPRPSPSPRP | 0.588
RRIRMRPPRLPRPRPRPSQLPRP | -0.0454
RRIRMRPPRLPRPRPRPSRCPRP | 0.274
RRIRMRPPRLPRPRPRPSSQPRP | 0.212
RRIRMRPPRLPRPRPRPSWDPRP | 0.709
RRIRMRPPRLPRPRPRPSWWPRP | 0.169
RRIRMRPPRLPRPRPRPSYEPRP | -0.293
RRIRMRPPRLPRPRPRPSYWPRP | 0.0657
RRIRMRPPRLPRPRPRPTASPRP | 1
RRIRMRPPRLPRPRPRPTCSPRP | 0.134
RRIRMRPPRLPRPRPRPTDHPRP | 0.309
RRIRMRPPRLPRPRPRPTFAPRP | 0.573
RRIRMRPPRLPRPRPRPTFIPRP | -0.027
RRIRMRPPRLPRPRPRPTGQPRP | 0.636
RRIRMRPPRLPRPRPRPTKEPRP | -0.0201
RRIRMRPPRLPRPRPRPTLLPRP | 0.2
RRIRMRPPRLPRPRPRPTMQPRP | 0.566
RRIRMRPPRLPRPRPRPTPHPRP | 1.13
